According to patent publication US20260226173A1 (Memorial Sloan Kettering, published 2026):

How the values were obtained:
[1] = molecular target: T1, biotinylated WT1 RMF pMHC complex (human); assay: SPR (Biacore), biotinylated pMHC on CAP chip, BiTE as analyte 150 to 4.6875 nM, 1:1 binding model; clone #18 BiTE
T1 construct: Soluble biotinylated complex loaded on the Biacore CAP chip; also called HLA-A2-WT1 RMF complex

[2] = molecular target: T2, WT1 RMF (…)/HLA-A2 complex on cells (human); assay: flow cytometry, phage clones on RMF-pulsed T2 cells
T2 construct: On T2 cells pulsed with the peptide, on cells expressing the RMF minigene, or naturally presented on WT1+/HLA-A2+ tumour cells; also called RMF/HLA-A2; WT1 RMF/A2 complex

[3] = molecular target: T3, HLA-A2 on T2 cells alone (not pulsed with peptide) (human); assay: flow cytometry, phage clones on T2 cells
T3 construct: TAP-deficient HLA-A2+ T2 cells with no peptide added; Also used as the HLA-A2 that pulsed peptides stabilise; also called T2 alone; T2 cells left unpulsed

[4] = molecular target: T4, TSTP1-10-mer (…)/HLA-A2 complex on T2 cells (human); assay: flow cytometry, T2 cells alone or pulsed with peptide, stained with BiTE at 1 µg/ml, MFI
T4 construct: Potential off-target peptide pulsed onto T2 cells; also called Tyrosyl protein sulfotransferase 1 peptide

[5] = molecular target: T1, biotinylated WT1 RMF pMHC complex; assay: SPR (Biacore), biotinylated pMHC on CAP chip, BiTE as analyte 150 to 4.6875 nM, 1:1 binding model; clone #34 BiTE

| Binder | Kd [1] [nM] | binding result [2] | binding result [3] | binding result [4] | Kd [5] [nM] |
| --- | --- | --- | --- | --- | --- |
| ESK2 clone #18 BiTE (bispecific antibody, V domains shown, made in CHO cells; also called ESK2-#18 BiTE; ESK2-BiTE clone #18) VH: not shown VL: QSVLTQPPSVSGAPGQRVSISCTGSSSNIGAGYVVHWYQHLPGTVPKLLIYDNSNRPSGVPDRFSGSNSGSSASLAVTGLQAEDEADYYCQSYDSSLSGWVFGGGTKLTVLG | 3 | – | – | – | – |
| ESK2 clone 15 (Clone 15 anti-WTMC antibody moiety), phage clone (scFv, V domains shown, Human scFv on phage (E-ALPHA library); also called ESK2-15) VH: QVQLVQSGAEVKKPGASVKVSCKASGYTFTDFYIHWVRQAPGQGPEWMGWVNPKSGGTNYAQKFQGRVTMTRDTSISTAYMALSRLRSDDTAVYYCARSWQGMSWESVEDVWGQGTLVTVSS VL: QSVLTQPPSVSGAPGQRVTISCTGSSSNIGAGYDVHWYQQLPGTAPKLLIYGNSNRPSGVPDRFSGSKSGTSASLAITGLQAEDEADYYCQSYDSSLSGAVFGTGTKVTVLG | – | binds | no binding | – | – |
| ESK2 clone 1 (Clone 1 anti-WTMC antibody moiety), phage clone (scFv, V domains shown, Human scFv on phage (E-ALPHA library); also called ESK2-1) VH: EVQLVQSGAEVKKPGASVKVSCKASGYNFTSYGISWVRQAPGQGLEWMGWISAYNGNTNYAQKLQGRVTMTTDTSTSTAYMELRSLRSDDTAVYYCARDWDYDFLTGWDGMDVWGQGTTVTVSS VL: QSVVTQPPSVSAAPGQKVTISCSGSSSNIGNNYVSWYQQLPGTAPKLLIYYNNKRPSGIPDRFSGSKSGTSATLGITGLQTGDEADYYCGTWDSSLSAGQVFGGGTKLTVLG | – | binds | no binding | – | – |
| ESK2 clone 26 (Clone 26 anti-WTMC antibody moiety), phage clone (scFv, V domains shown, Human scFv on phage (E-ALPHA library); also called ESK2-26) VH: QVQLVQSGGGLVQPGRSLRLSCAASGFTFDDYAMHWVRQAPGKGLEWVSGISWNSGSIGYADSVKGRFTISRDNAKNSLYLQMNSLRPEDTAVYYCARGYMGHNWYDWGQGTLVTVSS VL: LPVLTQPPSVSVAPGKTARITCGGNDIGSKAVHWYQQKPGQAPVLVIYYNRDRPSGIPERFSGSNSGNTATLTISRVEAGDEADYYCQVWDSFSDHYVFGTGTKVTVLG | – | binds | no binding | – | – |
| ESK2 clone 32 (Clone 32 anti-WTMC antibody moiety), phage clone (scFv, V domains shown, Human scFv on phage (E-ALPHA library); also called ESK2-32) VH: QVQLVQSGAEVKKPGSSVKVSCKASGDTFSSYAVSWVRQAPGQGLEWMGAINLIFGTVKYAQKFQGRITITADESTSTAYMELSSLRSEDTAVYYCARGHWSQVWWTSHSYDLWGQGTLVTVSS VL: QAVLTQPPSVSVAPGKTARITCGGNNIGSKSVHWYQQKPGQAPVLVVYDDSDRPSGIPERFSGSNSGNTATLTISRVEAGDEADYYCQVWDSSSDHYVFGTGTKVTVLG | – | binds | no binding | – | – |
| ESK2 clone 14 (Clone 14 anti-WTMC antibody moiety), phage clone (scFv, V domains shown, Human scFv on phage (E-ALPHA library); also called ESK2-14) VH: EVQLVQSGAEVKKPGASVKISCKTSGYTFTDYYLHWVRQAPVQGLEWMGYVDPYDGYTHYAQNFQGRVTMTTDTSTSTAYMELSSLRSEDTAVYYCARFSGTRQDSHWGQGTLVTVSS VL: QSALTQPPSASGSPGQSVTISCTGTSSDVGGYNYVSWYQQHPGKAPKLMIYEVSKRPSGVPDRFSGSKSGNTASLTVSGLQAEDEADYYCSSYAGSNNLAVVFGGGTKLTVLG | – | – | no binding | – | – |
| ESK2 clone 11 (Clone 11 anti-WTMC antibody moiety), phage clone (scFv, V domains shown, Human scFv on phage (E-ALPHA library); also called ESK2-11) VH: not shown VL: QSVVTQPPSVSAAPGQRVTISCSGGSSNIGNNYVSWYQHLPGTAPKLLIYENNLKRPSGIPDRFSGSKSGTSATLGITGLQTGDEADYYCGTWDSSLNAGVFGGGTKLTVLG | – | – | no binding | – | – |
| ESK2 clone 36 (Clone 36 anti-WTMC antibody moiety), phage clone (scFv, V domains shown, Human scFv on phage (E-ALPHA library); also called ESK2-36) VH: EVQLVQSGAEVKKPGESLRISCKDSGYSFTSYWISWVRQMPGKGLEWMGRIDPSDSYTNYSPSFQGHVTISADKSISTAYLQWSSLKASDTAMYYCARMEIYSPDYWGQGTLVTVSS VL: DIQLTQSPSSLSASVGDRVTISCRASQSINKYLNWYQQKPGEAPKLLIYGALRLQSGVPSRFSGSGSGTDYALTITSLQPEDFATYYCQQSYSTPLTFGGGTKVDIKR | – | binds | no binding | – | – |
| ESK2 clone 12 (Clone 12 anti-WTMC antibody moiety), phage clone (scFv, V domains shown, Human scFv on phage (E-ALPHA library); also called ESK2-12) VH: EVQLVESGGGLVQPGGSLRLSCVVSGITVSNNYMTWVRQAPGKGLEWVSVIYSDGSTYYADSVRGRFTISRDISKNTVFLQMNSLRAEDTAMYYCASDKVAVAWTDGLDSWGQGTMVTVSS VL: SSELTQDPTVSVALGQTVRITCQGDSLRSYYGGWYQQKPGQAPILVFHGQTNRPSGIPDRFSGSSSGNTVSLTITGAQAEDEADYYCSSRDSSGNHWVFGGGTKLTVLG | – | binds | no binding | – | – |
| ESK2 clone 10 (Clone 10 anti-WTMC antibody moiety), phage clone (scFv, V domains shown, Human scFv on phage (E-ALPHA library); also called ESK2-10) VH: EVQLVESGGGVVQPGGSLRLSCAASGFTFDDYAMHWVRQAPGKGLEWVSLISGDGGSTYYADSVKGRFTISRDNSKNSLYLQMNSLRTEDTALYYCAKDMVAAAGWNPYYYYYGMDVWGQGTTVTVSS VL: NFMLTQPHSVSESPGKTVTISCTRSSGGIATNYVQWYQQRPGNAPTAVIYVDNERPSGVPERFSGSIDTSSNSASLTISGLETEDEADYYCQSYDSNNHVVFGGGTKVTVLG | – | binds | no binding | – | – |
| ESK2 clone 30 (Clone 30 anti-WTMC antibody moiety), phage clone (scFv, V domains shown, Human scFv on phage (E-ALPHA library); also called ESK2-30) VH: QVQLQESGGGLVQPGGSLRLSCAASGFTFSSYWMHWVRQAPGKGLVWVSRINSDGSSTSYADSVKGRFTISRDNAKNTLYLQMNSLRAEDTAVYYCARSGYYMSDIWGQGTLVTVSS VL: NFMLTQPPSLSVAPGKTATITCGGNNIGSKSVHWYQQKPGQAPVLVISYDSDRPSGIPERFSGSKSGNTATLTISRVEAGDEADYYCQVWDSSSDQYVFGSGTKVTVLG | – | binds | no binding | – | – |
| ESK2 clone #34 BiTE (bispecific antibody, V domains shown, made in CHO cells; also called ESK2-#34 BiTE) VH: QVQLVQSGTEVRKPGASLKVSCTTSGYIFTGYYIHWVRQVPGQGLEWMGWINPNSGVTEFAQGFQGRITMTRDTSTSTVYMELSRLTSDDTAVYYCAREGVWGYYDSWGQGTLVTVSS VL: SSELTQDPAVSVALGQTVRITCQGDSLRSYYASWYQQKPGQAPVLVIYDKNNRPSGIPDRFSGSSSGNTASLTITGAQAEDEADYYCNSRDSSGNHHVVFGGGTKLTVLG | – | – | – | no binding (tested: 1 µg/ml) | 1.5 |
| ESK2 clone 17 (Clone 17 anti-WTMC antibody moiety), phage clone (scFv, V domains shown, Human scFv on phage (E-ALPHA library); also called ESK2-17) VH: EVQLVQSGAEVKKPGESLKISCKGSGYSFTSYWIGWVRQMPGKGLEWMGIIYPGDSDTRYSPSFQGQVTISADKSISTAYLQWSSLKASDTAVYYCARGGYIYYDAWGQGTLVTVSS VL: SYVLTQPPSVSEAPRQRVTISCSGSRSNVGNNAVSWYQHLPGKAPKLLIYYDDLMPSGVSDRFSGSKSGTSASLAISGLQSEDEADYYCAAWDDSLNGLVFGGGTKLTVLG | – | binds | no binding | – | – |
